Test results taken from patent US20210210159A1, “COMPUTATIONAL PROTEIN DESIGN USING TERTIARY OR QUATERNARY STRUCTURAL MOTIFS” (Trustees of Dartmouth College, priority 2018, published 2021).

Experiment: Fast Protein Liquid Chromatography / size-exclusion chromatography, oligomeric state
Type: physicochemical
Details: concentration of at least 10 μM
Source text: Based on the standards, the dimeric protein would be expected to elute at the volume indicated by a dotted line, which eliminates the possibility of design oligomerization.

native mCherry: Red Fluorescent Protein mCherry (PDB code 2H5Q), design template (SEQ ID NO. 1) [reference compound]
oligomeric state in solution: monomeric
